From US10562947B2, “Compositions and methods for preventing or treating diseases, conditions or processes characterized by aberrant fibroblast proliferation and extracellular matrix deposition” (MOERAE MATRIX, INC., priority 2011, dated 2020)

Tests used:
Test in all cases: Kinase Profiling Assay
Assay type in all cases: biochemical
Conditions in all cases: 100 μM peptide
cKit(V654A)(h) = cKit(V654A)(h) (Homo sapiens, UniProt P10721, V654A)
How it was run: (§1)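 First, MK2 inhibitor peptides were applied to a panel of 266 human kinases; then each kinase's activity was measured in duplicate to assess off-target inhibition.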

PrKX(h) = target: T1, PrKX(h) (Homo sapiens, UniProt P51817)
T1 construct: purchased Millipore (IC50 Profiler Express service)
T1 sequence (P51817 1-358): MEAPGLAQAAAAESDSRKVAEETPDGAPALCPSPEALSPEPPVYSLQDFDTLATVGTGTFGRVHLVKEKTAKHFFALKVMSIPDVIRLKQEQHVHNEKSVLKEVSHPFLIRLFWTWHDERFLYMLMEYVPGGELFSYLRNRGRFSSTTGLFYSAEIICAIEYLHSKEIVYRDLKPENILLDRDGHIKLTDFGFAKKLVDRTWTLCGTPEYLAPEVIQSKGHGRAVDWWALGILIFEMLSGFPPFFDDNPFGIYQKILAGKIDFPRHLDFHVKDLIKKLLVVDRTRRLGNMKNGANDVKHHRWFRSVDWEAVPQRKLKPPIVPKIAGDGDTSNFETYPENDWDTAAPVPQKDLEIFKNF
How it was run: as §1

MuSK(h) = target: T2, MuSK(h) (Homo sapiens, UniProt O15146)
T2 sequence (O15146 24-869): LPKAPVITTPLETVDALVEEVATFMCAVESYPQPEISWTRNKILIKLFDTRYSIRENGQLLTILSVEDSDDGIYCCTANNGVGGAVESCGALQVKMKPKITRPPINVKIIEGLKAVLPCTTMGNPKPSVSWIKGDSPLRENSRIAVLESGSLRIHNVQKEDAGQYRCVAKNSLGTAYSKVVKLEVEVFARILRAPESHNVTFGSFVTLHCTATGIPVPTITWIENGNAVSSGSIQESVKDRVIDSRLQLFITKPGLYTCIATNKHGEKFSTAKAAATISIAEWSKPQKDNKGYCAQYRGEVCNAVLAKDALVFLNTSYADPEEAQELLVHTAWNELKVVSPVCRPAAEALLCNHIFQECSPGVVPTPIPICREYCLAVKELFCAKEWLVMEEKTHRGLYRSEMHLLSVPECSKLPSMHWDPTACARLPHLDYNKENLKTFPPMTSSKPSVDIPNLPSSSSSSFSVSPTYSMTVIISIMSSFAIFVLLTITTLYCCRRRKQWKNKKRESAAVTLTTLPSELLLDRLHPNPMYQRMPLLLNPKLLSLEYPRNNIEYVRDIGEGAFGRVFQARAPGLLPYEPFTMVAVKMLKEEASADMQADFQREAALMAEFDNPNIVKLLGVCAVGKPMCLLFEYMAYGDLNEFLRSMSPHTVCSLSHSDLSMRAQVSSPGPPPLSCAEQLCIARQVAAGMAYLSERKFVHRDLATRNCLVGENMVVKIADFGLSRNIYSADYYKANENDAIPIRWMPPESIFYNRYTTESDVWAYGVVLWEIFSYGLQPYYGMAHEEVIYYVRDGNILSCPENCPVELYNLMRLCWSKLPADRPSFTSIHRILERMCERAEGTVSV
How it was run: as §1

LOK(h) = LOK(h) (Homo sapiens, UniProt O94804)
How it was run: as §1

Rsk1(h) = target: T3, Rsk1(h) (Homo sapiens, UniProt Q15418)
T3 construct: purchased Millipore (IC50 Profiler Express service)
How it was run: as §1

MST1(h) = target: T4, MST1(h) (Homo sapiens, UniProt Q13043)
T4 sequence (Q13043 1-487): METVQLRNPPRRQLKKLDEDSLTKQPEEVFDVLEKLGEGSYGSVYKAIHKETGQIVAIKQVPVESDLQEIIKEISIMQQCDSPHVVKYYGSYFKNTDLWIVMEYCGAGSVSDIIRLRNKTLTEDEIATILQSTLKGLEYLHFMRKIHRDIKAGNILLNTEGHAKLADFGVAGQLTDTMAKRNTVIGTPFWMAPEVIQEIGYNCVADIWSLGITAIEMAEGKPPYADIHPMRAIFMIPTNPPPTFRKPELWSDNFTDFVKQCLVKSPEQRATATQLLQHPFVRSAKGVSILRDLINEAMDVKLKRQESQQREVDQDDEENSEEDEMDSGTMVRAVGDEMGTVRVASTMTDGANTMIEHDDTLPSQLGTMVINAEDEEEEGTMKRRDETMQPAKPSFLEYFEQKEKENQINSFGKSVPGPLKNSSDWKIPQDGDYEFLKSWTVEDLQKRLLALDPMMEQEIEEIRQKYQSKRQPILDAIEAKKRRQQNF
How it was run: as §1

JAK2(h) = target: T5, JAK2(h) (Homo sapiens, UniProt O60674)
T5 construct: purchased Millipore
How it was run: as §1

GCK(h) = target: T6, GCK(h) (Homo sapiens, UniProt Q12851)
T6 construct: purchased Millipore
T6 sequence (Q12851 1-820): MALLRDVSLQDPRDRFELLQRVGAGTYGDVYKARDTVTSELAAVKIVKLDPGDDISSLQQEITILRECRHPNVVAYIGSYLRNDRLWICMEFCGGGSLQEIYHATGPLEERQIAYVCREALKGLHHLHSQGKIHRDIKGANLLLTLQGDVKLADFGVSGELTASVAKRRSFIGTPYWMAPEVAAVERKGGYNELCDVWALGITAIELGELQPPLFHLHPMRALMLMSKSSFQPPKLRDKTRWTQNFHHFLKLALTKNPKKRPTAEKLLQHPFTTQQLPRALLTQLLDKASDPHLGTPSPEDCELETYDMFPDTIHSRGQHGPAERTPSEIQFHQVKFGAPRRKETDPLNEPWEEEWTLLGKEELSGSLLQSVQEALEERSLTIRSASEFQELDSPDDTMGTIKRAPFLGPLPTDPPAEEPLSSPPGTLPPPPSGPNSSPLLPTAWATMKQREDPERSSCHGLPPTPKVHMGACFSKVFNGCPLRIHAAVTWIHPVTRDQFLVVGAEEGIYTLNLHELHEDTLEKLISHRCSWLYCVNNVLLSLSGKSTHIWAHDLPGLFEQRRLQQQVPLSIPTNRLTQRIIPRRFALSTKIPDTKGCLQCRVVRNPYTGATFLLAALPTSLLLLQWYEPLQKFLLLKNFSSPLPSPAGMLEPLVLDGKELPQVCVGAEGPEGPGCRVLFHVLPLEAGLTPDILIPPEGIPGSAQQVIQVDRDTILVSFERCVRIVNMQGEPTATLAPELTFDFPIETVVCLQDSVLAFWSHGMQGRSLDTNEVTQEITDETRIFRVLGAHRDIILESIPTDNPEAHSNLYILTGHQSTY
How it was run: as §1

Abl(h) = Abl(h) (Homo sapiens, UniProt P00519)
How it was run: as §1

Sequence of Abl(h) (P00519 whole entry): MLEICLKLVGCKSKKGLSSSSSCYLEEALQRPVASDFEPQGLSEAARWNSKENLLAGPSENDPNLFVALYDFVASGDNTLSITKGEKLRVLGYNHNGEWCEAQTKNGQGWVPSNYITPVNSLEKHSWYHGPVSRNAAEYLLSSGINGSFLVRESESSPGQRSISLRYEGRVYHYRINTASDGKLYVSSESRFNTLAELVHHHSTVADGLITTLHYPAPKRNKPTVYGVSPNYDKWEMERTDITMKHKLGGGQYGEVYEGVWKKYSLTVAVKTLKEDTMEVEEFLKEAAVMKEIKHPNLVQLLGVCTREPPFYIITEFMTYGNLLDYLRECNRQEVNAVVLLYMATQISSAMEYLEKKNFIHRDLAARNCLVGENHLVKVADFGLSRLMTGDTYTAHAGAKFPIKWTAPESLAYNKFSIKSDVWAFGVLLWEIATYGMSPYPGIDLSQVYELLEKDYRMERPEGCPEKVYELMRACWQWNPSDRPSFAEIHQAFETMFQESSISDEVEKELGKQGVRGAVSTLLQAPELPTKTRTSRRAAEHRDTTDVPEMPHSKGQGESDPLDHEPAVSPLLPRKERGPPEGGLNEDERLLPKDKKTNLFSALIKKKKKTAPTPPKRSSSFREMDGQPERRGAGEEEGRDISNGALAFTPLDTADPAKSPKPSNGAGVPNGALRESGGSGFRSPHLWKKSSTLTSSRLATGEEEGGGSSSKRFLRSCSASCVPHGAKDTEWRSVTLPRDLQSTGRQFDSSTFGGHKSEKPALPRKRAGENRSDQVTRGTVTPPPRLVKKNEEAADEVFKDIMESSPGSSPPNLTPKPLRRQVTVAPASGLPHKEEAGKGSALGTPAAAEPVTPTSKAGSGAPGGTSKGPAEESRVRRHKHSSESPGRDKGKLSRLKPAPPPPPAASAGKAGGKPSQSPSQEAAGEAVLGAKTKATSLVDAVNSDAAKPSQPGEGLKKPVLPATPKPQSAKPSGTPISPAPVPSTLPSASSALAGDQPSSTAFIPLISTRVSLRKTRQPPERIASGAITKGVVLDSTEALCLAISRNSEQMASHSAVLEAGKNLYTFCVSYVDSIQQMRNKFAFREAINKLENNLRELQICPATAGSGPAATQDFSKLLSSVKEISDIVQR
T5 sequence (O60674 whole entry): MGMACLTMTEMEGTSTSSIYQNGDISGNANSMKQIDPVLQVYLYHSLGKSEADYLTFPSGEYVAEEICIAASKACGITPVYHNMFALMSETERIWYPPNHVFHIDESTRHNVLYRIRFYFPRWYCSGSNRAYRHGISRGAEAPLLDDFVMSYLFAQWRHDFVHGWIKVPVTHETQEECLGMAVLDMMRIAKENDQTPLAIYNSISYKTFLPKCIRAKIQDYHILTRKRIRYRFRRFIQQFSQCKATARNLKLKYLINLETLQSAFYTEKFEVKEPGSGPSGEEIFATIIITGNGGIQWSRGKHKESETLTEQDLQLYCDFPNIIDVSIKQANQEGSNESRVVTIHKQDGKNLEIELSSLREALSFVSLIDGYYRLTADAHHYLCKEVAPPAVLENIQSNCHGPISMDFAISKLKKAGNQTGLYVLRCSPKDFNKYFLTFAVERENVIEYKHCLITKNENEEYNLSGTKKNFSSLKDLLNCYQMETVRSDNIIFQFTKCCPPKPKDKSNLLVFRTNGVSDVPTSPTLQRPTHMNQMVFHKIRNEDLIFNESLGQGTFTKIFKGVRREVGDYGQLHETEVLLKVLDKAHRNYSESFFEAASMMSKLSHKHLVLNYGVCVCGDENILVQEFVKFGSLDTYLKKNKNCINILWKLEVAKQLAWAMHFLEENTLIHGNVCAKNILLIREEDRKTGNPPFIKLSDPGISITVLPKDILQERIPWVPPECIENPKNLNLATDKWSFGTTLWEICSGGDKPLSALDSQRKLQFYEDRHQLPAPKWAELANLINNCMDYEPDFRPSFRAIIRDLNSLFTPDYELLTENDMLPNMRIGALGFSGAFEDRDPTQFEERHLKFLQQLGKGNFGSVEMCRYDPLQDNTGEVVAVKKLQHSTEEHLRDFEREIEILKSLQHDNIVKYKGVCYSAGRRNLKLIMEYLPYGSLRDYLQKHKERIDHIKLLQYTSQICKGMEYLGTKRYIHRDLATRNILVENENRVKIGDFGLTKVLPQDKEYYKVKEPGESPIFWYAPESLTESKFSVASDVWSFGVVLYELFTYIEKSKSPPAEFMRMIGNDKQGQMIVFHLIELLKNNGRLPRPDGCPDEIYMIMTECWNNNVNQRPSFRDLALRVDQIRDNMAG
T3 sequence (Q15418 whole entry): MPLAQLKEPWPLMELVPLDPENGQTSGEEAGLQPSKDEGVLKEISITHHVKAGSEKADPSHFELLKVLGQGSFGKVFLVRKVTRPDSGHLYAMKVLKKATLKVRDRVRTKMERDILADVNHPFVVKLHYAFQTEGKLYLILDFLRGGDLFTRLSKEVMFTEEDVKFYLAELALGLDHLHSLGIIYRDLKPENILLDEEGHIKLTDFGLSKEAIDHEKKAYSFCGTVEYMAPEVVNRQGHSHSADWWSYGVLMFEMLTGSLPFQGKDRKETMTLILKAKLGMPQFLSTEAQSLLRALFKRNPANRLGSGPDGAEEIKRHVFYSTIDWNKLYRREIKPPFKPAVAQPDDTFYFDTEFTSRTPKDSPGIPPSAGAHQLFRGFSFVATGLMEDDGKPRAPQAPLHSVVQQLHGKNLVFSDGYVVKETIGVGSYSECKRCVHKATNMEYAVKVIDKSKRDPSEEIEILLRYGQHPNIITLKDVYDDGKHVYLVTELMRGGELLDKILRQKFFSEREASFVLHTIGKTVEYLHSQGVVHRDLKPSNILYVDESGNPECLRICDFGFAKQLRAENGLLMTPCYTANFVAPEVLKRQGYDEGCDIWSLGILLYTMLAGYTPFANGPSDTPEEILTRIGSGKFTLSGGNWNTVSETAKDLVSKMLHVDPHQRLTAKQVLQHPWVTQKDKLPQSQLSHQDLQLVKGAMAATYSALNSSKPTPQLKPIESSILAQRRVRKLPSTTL
Sequence of LOK(h) (O94804 whole entry): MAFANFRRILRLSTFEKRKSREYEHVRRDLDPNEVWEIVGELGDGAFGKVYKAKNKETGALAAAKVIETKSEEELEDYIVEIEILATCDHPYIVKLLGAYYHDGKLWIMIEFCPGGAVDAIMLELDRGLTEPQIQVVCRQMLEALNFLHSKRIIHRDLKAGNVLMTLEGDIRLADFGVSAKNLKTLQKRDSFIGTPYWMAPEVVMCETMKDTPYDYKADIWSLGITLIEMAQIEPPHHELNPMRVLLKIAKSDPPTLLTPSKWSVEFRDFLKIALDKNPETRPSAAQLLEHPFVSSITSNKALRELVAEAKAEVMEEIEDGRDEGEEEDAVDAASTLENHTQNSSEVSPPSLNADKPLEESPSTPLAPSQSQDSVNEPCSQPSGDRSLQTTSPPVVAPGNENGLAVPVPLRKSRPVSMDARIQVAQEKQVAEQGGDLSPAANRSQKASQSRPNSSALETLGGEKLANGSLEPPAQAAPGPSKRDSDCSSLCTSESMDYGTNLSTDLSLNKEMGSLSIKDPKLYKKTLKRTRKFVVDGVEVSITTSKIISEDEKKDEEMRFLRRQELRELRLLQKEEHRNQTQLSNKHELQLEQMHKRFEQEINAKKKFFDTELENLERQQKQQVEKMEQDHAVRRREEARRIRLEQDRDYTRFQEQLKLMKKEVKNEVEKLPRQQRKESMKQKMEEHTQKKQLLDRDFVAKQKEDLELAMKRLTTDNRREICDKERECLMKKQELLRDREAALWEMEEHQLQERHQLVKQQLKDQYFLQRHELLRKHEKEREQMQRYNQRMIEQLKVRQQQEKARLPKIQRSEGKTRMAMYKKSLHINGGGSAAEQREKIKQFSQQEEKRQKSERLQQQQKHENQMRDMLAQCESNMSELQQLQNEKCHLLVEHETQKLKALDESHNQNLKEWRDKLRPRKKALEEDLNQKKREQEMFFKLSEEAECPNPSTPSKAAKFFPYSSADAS

Row | Sequence | cKit(V654A)(h) % activity (cKit(V654A)(h)) | PrKX(h) % activity (PrKX(h)) | MuSK(h) % activity (MuSK(h)) | LOK(h) % activity (LOK(h)) | Rsk1(h) % activity (Rsk1(h)) | MST1(h) % activity (MST1(h)) | JAK2(h) % activity (JAK2(h)) | GCK(h) % activity (GCK(h)) | Abl(h) % activity (Abl(h))
1 | FAKLAARLYRKALARQLGVAA [MMI-0300] | 134% | 61% | 93% | 37% | 46% | 14% | 133% | 70% | 69%
2 | HRRIKAWLKKIKALARQLGVAA (Mammalian) [MMI-0500] | 223% | 57% | 27% | 7% | 34% | 3% | 49% | 30% | 16%
3 | KAFAKLAARLYRKALARQLGVAA [MMI-0400] | 150% | 76% | 93% | 18% | 54% | 6% | – | 66% | 84%
4 | YARAAARQARAKALNRQLGVA (Mammalian) [MMI-0200] | – | – | – | 67% | – | 72% | 131% | 99% | –
